Here are results for two molecules from US5424205A, “Amyloidin protease and uses thereof” (Athena Neurosciences, Inc., priority 1993, dated 1995).

Entries after “also recorded” stand apart in the source; their conditions may differ. Residues, ends and D or L forms follow the SMILES beside them.

Series [1] deals with extracts of mammalian tissues. The series is described as follows: Cleavage of amyloid-like substrate by soluble tissue extracts. Format: biochemical. The following applies: low-ionic strength extract; 0.1 to 10 mM Ca++; pH 6.5 to 8. The protocol: To isolate the amyloid protease activities of the present invention, extracts of mammalian tissues were made in a variety of aqueous buffers, such as, for example, Tris, phosphate and HEPES, of about 20-50 mM pH 7.5, at 4°-8° C., using conventional homogenation procedures, such as, for example, Waring blender or Teflon homogenizer, followed by repeated centrifugation at 10,000-15,000×g. The supernatant soluble fraction from this stage ("low ionic strength") are decanted and the pellet is further extracted with high ionic strength salt, for example 1M NaCl, and a detergent, such as 1% Triton X-100. If, however, the amyloidin proteases are to be isolated from mammalian cells such as erythrocytes, conventional cell disruption techniques may be employed. Such techniques include homogenization, sonication, osmotic lysis and pressure cycling. Prior to disruption, the cells may be first concentrated by filtration, centrifugation, or other conventional methods.
The various extracts are generally incubated with the amyloid-like substrates under a variety of conditions. […]
Aliquots of the sample are analyzed by injection onto a C18 reversed-phase HPLC column and elution with a 0-60% gradient of 0.1% TFA/acetonitrile, to assess the degradation of the substrate. […] Little peptide cleavage activity was detected under other extraction conditions, for example, with high salt or detergents. […]

The test system of series [2] is human skin chymase (HSC). The series is described as follows: Cleavage of APP592-601 by human skin chymase. It is filed as biochemical. The following applies: 200 ng enzyme; standard peptide cleavage assay. The protocol:
(§1) Routinely, 25 ul of enzyme solution were mixed with 10 ul of 1M Tris, pH 7.5, 5 ul 10 mM CaCl2, and 10 ul of a 2 mg/ml Stock solution of APP592-601 in water, or 20 mM Tris, pH 7.5, 0.15M NaCl, in 1.5 ml polypropylene microfuge tubes. The reaction mixtures were incubated for 60 min at 37° C. in a water bath, then quenched with 450 ul ice-cold ethanol, and incubated on ice for a further 20 min. They were centrifuged at 15,000×g for 10 min, and the supernatants transferred to new polypropylene tubes and dried under vacuum. The residue was dissolved in 0.5 ml water, centrifuged at 15,000×g for 5 min, and 200 ul of the supernatant injected onto a 0.46×30 cm Vydac C18 column equilibrated with 0.1% trifluoroacetic acid in water, at 1 ml/min. The column was immediately eluted with a linear gradient to 40% acetronitrile in 0.1% trifluoroacetic acid in water, over 20 minutes. The elution was monitored at 220 nm, and peaks were individually collected, hydrolyzed in 6N HCl at […] for 2 hr, then subjected to quantitative amino-acid analysis in an Applied Biosystems amino-acid analyzer. Once identified, times of elution were used to identify cleavage patterns.

For another series, the target named is T1, clipsin/RMCP I (Rattus norvegicus, UniProt P09650).
T1 sequence (P09650 21-260): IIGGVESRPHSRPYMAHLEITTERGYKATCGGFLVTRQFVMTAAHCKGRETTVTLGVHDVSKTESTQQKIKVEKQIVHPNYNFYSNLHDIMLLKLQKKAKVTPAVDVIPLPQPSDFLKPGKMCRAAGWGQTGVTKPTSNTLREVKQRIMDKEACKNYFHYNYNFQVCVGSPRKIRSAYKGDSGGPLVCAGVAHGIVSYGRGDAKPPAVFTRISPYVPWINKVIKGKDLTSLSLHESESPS
Nature of the series: Cleavage of APP592-601 by clipsin/RMCP I. It is filed as biochemical. Conditions: standard peptide cleavage assay. The protocol: as §1
The procedure to isolate RMCP I was adapted exactly from that described by Nelson & Siman (1990), supra. […]

In series [3] the target is T2, amyloidin (Homo sapiens, UniProt P52888).
T2 construct: from tissue; a purification from blood is also described
T2 sequence (P52888 whole entry): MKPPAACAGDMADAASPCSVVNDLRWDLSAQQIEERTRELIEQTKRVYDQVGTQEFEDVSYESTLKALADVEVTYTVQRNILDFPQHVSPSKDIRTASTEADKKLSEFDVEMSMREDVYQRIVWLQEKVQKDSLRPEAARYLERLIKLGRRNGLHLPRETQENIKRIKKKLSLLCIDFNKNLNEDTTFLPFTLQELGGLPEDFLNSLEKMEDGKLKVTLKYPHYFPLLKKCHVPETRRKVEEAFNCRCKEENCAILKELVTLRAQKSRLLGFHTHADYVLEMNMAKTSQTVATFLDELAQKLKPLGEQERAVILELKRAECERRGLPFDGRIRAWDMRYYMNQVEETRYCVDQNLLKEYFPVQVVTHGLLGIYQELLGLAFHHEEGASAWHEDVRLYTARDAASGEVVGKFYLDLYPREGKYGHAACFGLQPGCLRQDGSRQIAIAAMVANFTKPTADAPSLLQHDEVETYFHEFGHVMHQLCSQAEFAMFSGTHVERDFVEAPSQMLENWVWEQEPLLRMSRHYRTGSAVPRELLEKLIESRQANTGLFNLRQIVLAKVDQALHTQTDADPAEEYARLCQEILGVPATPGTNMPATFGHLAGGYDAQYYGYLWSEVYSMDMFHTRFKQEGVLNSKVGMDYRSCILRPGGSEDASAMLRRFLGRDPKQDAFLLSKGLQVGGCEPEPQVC
Nature of the series: Cleavage of APP592-601 and its analogs by amyloidin (subsite requirements). Format: biochemical. Conditions: pH 7.5, CaCl2, 37° C., 60 min; RP-HPLC. The protocol:
as §1
In order to test the subsite requirements of amyloidin in the APP592-601 cleavage assay, analogs of this peptide substrate were synthesized.
Following synthesis and purification, the peptides were then incubated with amyloidin under conditions identical to those developed with APP592-601. The underlined residues designated changes from the native peptide sequence while the arrows indicate peptide cleavage sites. [drawing 5]

Series [4] deals with RMCP I. The following applies: known before; listed as α1 -antichymotrypsin; cited from earlier work.
In series [5] the test system is RMCP I. The series is described as follows: Inhibition of RMCP I, APP592-601 cleaving activity. It is filed as biochemical, rat. The following applies: pre-treatment with 200 ng.
Series [6] addresses T2, amyloidin. The series is described as follows: Inhibition of amyloidin by various inhibitors (APP592-601 peptide cleavage). Format: biochemical.
The subject of a further series is brain protease. Conditions: Abraham et al; cited from earlier work.
The subject of series [7] is RMCP I. The series is described as follows: Inhibition of RMCP I, Suc-Ala-Ala-Pro-Phe-pNA hydrolysing activity. It is filed as biochemical, rat. The following applies: pre-treatment with 200 ng.
Series [8] concerns human skin chymase (HSC). Conditions: known before; cited from earlier work.

Turning to `CSCC[C@H](NC(=O)[C@H](CCCCN)NC(=O)[C@@H](NC(=O)[C@H](CCC(=O)O)NC(=O)[C@H](CO)NC(C)=O)C(C)C)C(=O)N[C@@H](CC(=O)O)C(=O)N[C@@H](C)C(=O)N[C@@H](CCC(=O)O)C(=O)N[C@@H](Cc1ccccc1)C(=O)N[C@@H](CCCNC(=N)N)C(=O)O` [APP592-601] (Ac-SEVKMDAEFR-OH), the “major sites of cleavage by crude tissue extract” value in [1] was “between the Met-Asp, the Asp-Ala, and the Ala-Glu bonds”. In addition, in the series on human skin chymase (HSC) [2], the “site of cleavage of APP592-601 by human skin chymase” value is reported as “cleavage at the Met-Asp bond; also recorded: all three proteases cleaved the APP592-601 peptide at the Met-Asp bond”. In addition, at clipsin/RMCP I, the “site of cleavage of APP592-601 by clipsin/RMCP I” value is listed as “cleavage at the Met-Asp bond; also recorded: selectively cleaves the amyloid substrate APP592-601 at the Met-Asp peptide bond; also recorded: all three proteases cleaved the APP592-601 peptide at the Met-Asp bond”. Besides, the “site of cleavage by amyloidin” value on amyloidin [3] is on record as “three-site cleavage”.

B1: α1-ACT: general plasma serine proteinase inhibitor (protein, UniProt P01011 24-423, looked up)
Alpha-1-antichymotrypsin: HPNSPLDEENLTQENQDRGTHVDLGLASANVDFAFSLYKQLVLKAPDKNVIFSPLSISTALAFLSLGAHNTTLTEILKGLKFNLTETSEAEIHQSFQHLLRTLNQSSDELQLSMGNAMFVKEQLSLLDRFTEDAKRLYGSEAFATDFQDSAAAKKLINDYVKNGTRGKITDLIKDLDSQTMMVLVNYIFFKAKWEMPFDPQDTHQSRFYLSKKKWVMVPMMSLHHLTIPYFRDEELSCTVVELKYTGNASALFILPDQDKMEEVEAMLLPETLKRWRDSLEFREIGELYLPKFSISRDYNLNDILLQLGIEEAFTSKADLSGITGARNLAVSQVVHKAVLDVFEEGTEASAATAVKITLLSALVETRTIVRFNRPFLMIIVPTDTQNIFFMSKVTNPKQA
Turning to B1, in the series on RMCP I [4], the “inhibition of RMCP I, as known” value is reported as “strong inhibitor of RMCP I; also recorded: inhibitable”. Moreover, the “inhibition of APP592-601 cleaving protease activity” value in the series on RMCP I [5] was “completely inhibited”. For the same molecule, the “% Control Activity” value with amyloidin [6] (assay conc. 30 ug/ml, 30 min pre-incubation, room temperature) stood at 121%. Also, in the series with amyloidin [6] (in words), the “inhibitory effect on amyloidin” value is reported as “Neither α-1-proteinase inhibitor or α-1-antichymotrypsin, two general plasma serine proteinase inhibitors, had any inhibitory effect”. For the same molecule, in the series on brain protease, the “inhibition of peptide cleavage by brain protease” value is “inhibited”. The “inhibition of Suc-Ala-Ala-Pro-Phe-pNA hydrolysing activity” value in the series on RMCP I [7] is on record as “completely eliminated”. In addition, the “inhibition of HSC, as known” value in the series on human skin chymase (HSC) [8] is “inhibitable”.
